What all share (test): cAMP activity assay (pCRE β-galactosidase reporter), transfected HEK293T cells
Holding throughout (format): cell-based

One assay deals with T1, RXFP1 E67A (Homo sapiens, UniProt Q9HBX9, E89A).
T1 construct: cells expressing full-length RXFP1 and mutants; expressed in transfected cells; host or cells: HEK293T
T1 sequence (Q9HBX9 23-757 E89A limits assumed): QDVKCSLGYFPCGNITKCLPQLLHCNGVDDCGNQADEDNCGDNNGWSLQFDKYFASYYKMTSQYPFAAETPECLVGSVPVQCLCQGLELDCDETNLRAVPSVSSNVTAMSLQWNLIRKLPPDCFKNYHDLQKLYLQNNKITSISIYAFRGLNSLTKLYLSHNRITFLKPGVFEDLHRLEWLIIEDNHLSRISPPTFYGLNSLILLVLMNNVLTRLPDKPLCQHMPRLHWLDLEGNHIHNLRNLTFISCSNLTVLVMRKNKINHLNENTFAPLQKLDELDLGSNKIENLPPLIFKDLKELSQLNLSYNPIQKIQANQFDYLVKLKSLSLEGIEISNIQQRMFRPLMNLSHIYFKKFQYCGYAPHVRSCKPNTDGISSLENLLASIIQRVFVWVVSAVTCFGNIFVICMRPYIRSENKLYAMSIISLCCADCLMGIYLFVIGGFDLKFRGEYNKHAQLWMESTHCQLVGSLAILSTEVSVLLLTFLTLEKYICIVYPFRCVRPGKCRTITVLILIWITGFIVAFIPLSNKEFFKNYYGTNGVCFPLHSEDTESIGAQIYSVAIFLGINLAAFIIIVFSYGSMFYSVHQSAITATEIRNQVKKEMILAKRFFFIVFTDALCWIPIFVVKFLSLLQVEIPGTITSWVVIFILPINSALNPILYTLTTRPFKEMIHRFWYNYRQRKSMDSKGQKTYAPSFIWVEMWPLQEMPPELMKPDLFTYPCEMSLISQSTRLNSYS
The settings on record: construct E67A, ±s.e.m. Put shortly:
(§1)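 Relaxin-stimulated cells go through overnight storage at −80 °C, two 10-min lysis steps at pH 8.0 with shaking, and chlorophenol red-β-D-galactopyranoside development. Output at 570 nm is scaled against the 5 μM Forskolin maximum.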

The next assay has as its target T2, RXFP1 F54A/Y58A (Homo sapiens, UniProt Q9HBX9, F76A/Y80A).
T2 construct: cells expressing full-length RXFP1 and mutants; expressed in transfected cells; host or cells: HEK293T
T2 sequence (Q9HBX9 23-757 F76A/Y80A limits assumed): T1 sequence (Q9HBX9 23-757 E89A limits assumed) with F54A, Y58A, A67E
To be noted: construct F54A/Y58A, ±s.e.m. Put shortly: as §1

The target of the next assay is T3, RXFP1 Y58A (Homo sapiens, UniProt Q9HBX9, Y80A).
T3 construct: cells expressing full-length RXFP1 and mutants; expressed in transfected cells; host or cells: HEK293T
T3 sequence (Q9HBX9 23-757 Y80A limits assumed): T1 sequence (Q9HBX9 23-757 E89A limits assumed) with Y58A, A67E
To be noted: construct Y58A, ±s.e.m. Put shortly: as §1

The mark [1] stands for this setting: percentage of maximum response to 5 μM Forskolin.

Positions count from the first letter of the chain named.

On to “H2 relaxin: two-chain 6-kDa peptide hormone structurally related to insulin; recombinant human gene-2 H2 relaxin provided by Corthera”, for which the “H2 relaxin pEC50” value is recorded as 11.13±0.13 with RXFP1 E67A (cAMP reporter), 9.87±0.08 (5)***^,#,θ in the assay with RXFP1 F54A/Y58A (cAMP reporter) and 10.88±0.09 (3) with RXFP1 Y58A (cAMP reporter). Moreover, the “H2 relaxin Emax” value is on record as 141.74±27.08 (5) % in the assay with RXFP1 E67A (setting [1]), 99.94±2.19 (5) % with RXFP1 F54A/Y58A (setting [1]) and 89.14±7.93 (3) % in the assay with RXFP1 Y58A (setting [1]).

(Values after publication PMC4837482, “The complex binding mode of the peptide hormone H2 relaxin to its receptor RXFP1” (Nature Communications, 2016).)
